Earlier results on 2 substances are cited in PMC10155966.

Data set [1] has as its target LC8 (UniProt P63167).
In data set [2] the target is dynein intermediate chain (IC) (Rattus norvegicus) (UniProt Q63100). The data set can be described thus: ITC. For orientation: In ITC the heat of successive injections is recorded.
Sequence of UniProt Q63100 (Q63100 2-643): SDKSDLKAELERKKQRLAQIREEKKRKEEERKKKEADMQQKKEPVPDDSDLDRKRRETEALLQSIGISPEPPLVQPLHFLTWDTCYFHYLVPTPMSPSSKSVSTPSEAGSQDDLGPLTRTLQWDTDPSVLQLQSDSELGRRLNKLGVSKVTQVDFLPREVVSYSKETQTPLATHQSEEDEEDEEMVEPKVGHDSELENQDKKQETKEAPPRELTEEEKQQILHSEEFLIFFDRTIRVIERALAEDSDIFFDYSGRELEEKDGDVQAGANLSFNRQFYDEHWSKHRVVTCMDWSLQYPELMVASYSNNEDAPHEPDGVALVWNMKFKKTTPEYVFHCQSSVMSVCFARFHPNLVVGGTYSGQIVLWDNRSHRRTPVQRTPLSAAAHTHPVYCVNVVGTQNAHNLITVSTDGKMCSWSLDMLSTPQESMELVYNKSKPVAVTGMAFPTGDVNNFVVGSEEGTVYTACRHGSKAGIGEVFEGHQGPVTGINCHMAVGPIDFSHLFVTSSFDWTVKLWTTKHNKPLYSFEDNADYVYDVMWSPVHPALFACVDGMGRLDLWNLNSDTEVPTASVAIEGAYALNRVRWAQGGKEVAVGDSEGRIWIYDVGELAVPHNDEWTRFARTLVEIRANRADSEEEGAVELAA

Turning to LC8 (from UniProt P63167), in data set [1], the dissociation constant (Kd) was 0.06 µM. Turning to NudE (from UniProt Q9ES39), the dissociation constant (Kd) in data set [2] is 2.3 µM.

By Kd is commonly meant a measure of binding affinity in units of concentration.
